# Reference: FireProtDB (doi:10.1110/ps.8.7.1530)
# B1: PTS system mannose-specific EIIAB component, P69797 (parent)
# chain: MTIAIVIGTHGWAAEQLLKTAEMLLGEQENVGWIDFVPGENAETLIEKYNAQLAKLDTTKGVLFLVDTWGGSPFNAASRIVVDKEHYEVIAGVNIPMLVETLMARDDDPSFDELVALAVETGREGVKALKAKPVEKAAPAPAAAAPKAAPTPAKPMGPNDYMVIGLARIDDRLIHGQVATRWTKETNVSRIIVVSDEVAADTVRKTLLTQVAPPGVTAHVVDVAKMIRVYNNPKYAGERVMLLFTNPTDVERLVEGGVKITSVNVGGMAFRQGKTQVNNAVSVDEKDIEAFKKLNARGIELEVRKVSTDPKLKMMDLISKIDK
# Variants of: B1
# Settings: Escherichia coli (strain K12); pH 7.4; 22 °C; GdnHCl; Fluorescence; Sodium phosphate 20 mM; reversible: yes; structure 1PDO; whole UniProt chain shown
Variant,denaturant midpoint (higher = more stable) [M],unfolding free energy [kcal/mol]
MTIAIVIGTHGFAAEQLLKTAEMLLGEQENVGFIDFVPGENAETLIEKYNAQLAKLDTTKGVLFLVDTWGGSPFNAASRIVVDKEHYEVIAGVNIPMLVETLMARDDDPSFDELVALAVETGREGVKALKAKPVEKAAPAPAAAAPKAAPTPAKPMGPNDYMVIGLARIDDRLIHGQVATRWTKETNVSRIIVVSDEVAADTVRKTLLTQVAPPGVTAHVVDVAKMIRVYNNPKYAGERVMLLFTNPTDVERLVEGGVKITSVNVGGMAFRQGKTQVNNAVSVDEKDIEAFKKLNARGIELEVRKVSTDPKLKMMDLISKIDK [W12F W33F],2.2,10.8
MTIAIVIGTHGWAAEQLLKTAEMLLGEQENVGWIDFVPGENAETLIEKYNAQLAKLDTTKGVLFLVDTFGGSPFNAASRIVVDKEHYEVIAGVNIPMLVETLMARDDDPSFDELVALAVETGREGVKALKAKPVEKAAPAPAAAAPKAAPTPAKPMGPNDYMVIGLARIDDRLIHGQVATRWTKETNVSRIIVVSDEVAADTVRKTLLTQVAPPGVTAHVVDVAKMIRVYNNPKYAGERVMLLFTNPTDVERLVEGGVKITSVNVGGMAFRQGKTQVNNAVSVDEKDIEAFKKLNARGIELEVRKVSTDPKLKMMDLISKIDK [W69F],2.1,6.22
MTIAIVIGTHGFAAEQLLKTAEMLLGEQENVGWIDFVPGENAETLIEKYNAQLAKLDTTKGVLFLVDTWGGSPFNAASRIVVDKEHYEVIAGVNIPMLVETLMARDDDPSFDELVALAVETGREGVKALKAKPVEKAAPAPAAAAPKAAPTPAKPMGPNDYMVIGLARIDDRLIHGQVATRWTKETNVSRIIVVSDEVAADTVRKTLLTQVAPPGVTAHVVDVAKMIRVYNNPKYAGERVMLLFTNPTDVERLVEGGVKITSVNVGGMAFRQGKTQVNNAVSVDEKDIEAFKKLNARGIELEVRKVSTDPKLKMMDLISKIDK [W12F],2.6,14.1
MTIAIVIGTHGWAAEQLLKTAEMLLGEQENVGFIDFVPGENAETLIEKYNAQLAKLDTTKGVLFLVDTWGGSPFNAASRIVVDKEHYEVIAGVNIPMLVETLMARDDDPSFDELVALAVETGREGVKALKAKPVEKAAPAPAAAAPKAAPTPAKPMGPNDYMVIGLARIDDRLIHGQVATRWTKETNVSRIIVVSDEVAADTVRKTLLTQVAPPGVTAHVVDVAKMIRVYNNPKYAGERVMLLFTNPTDVERLVEGGVKITSVNVGGMAFRQGKTQVNNAVSVDEKDIEAFKKLNARGIELEVRKVSTDPKLKMMDLISKIDK [W33F],2.2,8.37
MTIAIVIGTHGFAAEQLLKTAEMLLGEQENVGWIDFVPGENAETLIEKYNAQLAKLDTTKGVLFLVDTFGGSPFNAASRIVVDKEHYEVIAGVNIPMLVETLMARDDDPSFDELVALAVETGREGVKALKAKPVEKAAPAPAAAAPKAAPTPAKPMGPNDYMVIGLARIDDRLIHGQVATRWTKETNVSRIIVVSDEVAADTVRKTLLTQVAPPGVTAHVVDVAKMIRVYNNPKYAGERVMLLFTNPTDVERLVEGGVKITSVNVGGMAFRQGKTQVNNAVSVDEKDIEAFKKLNARGIELEVRKVSTDPKLKMMDLISKIDK [W12F W69F],2.1,11
MTIAIVIGTHGWAAEQLLKTAEMLLGEQENVGFIDFVPGENAETLIEKYNAQLAKLDTTKGVLFLVDTFGGSPFNAASRIVVDKEHYEVIAGVNIPMLVETLMARDDDPSFDELVALAVETGREGVKALKAKPVEKAAPAPAAAAPKAAPTPAKPMGPNDYMVIGLARIDDRLIHGQVATRWTKETNVSRIIVVSDEVAADTVRKTLLTQVAPPGVTAHVVDVAKMIRVYNNPKYAGERVMLLFTNPTDVERLVEGGVKITSVNVGGMAFRQGKTQVNNAVSVDEKDIEAFKKLNARGIELEVRKVSTDPKLKMMDLISKIDK [W33F W69F],1.8,5.26
